Data from patent US20030096403A1.

Target: surface antigen S of hepatitis B virus (Greencross Co.) (hepatitis B virus)
Assay: competitive ELISA: antibody pre-incubated with soluble surface antigen S, then plate coated with surface antigen S

Ka: 4e+09 M⁻¹
B1: humanized antibody HzS-III (antibody, V domains shown)
VH: EVQLVQSGAEVKKPGASVKVSCKASGYTFTDYNVQWVRQAPGKSLEWMGYIYPYSGGTGYSQKFQGRVTLTVDNSASTAYMELSSLRSEDTAVYYCARNYGYDSSAYWGQGTLVTVSS
VL: DIVLTQSPASLAVSPGQRATITCRASESVSNYGINFINWFQQKPGQPPKLLIYTASNKGTGVPARFSGSGSGTDFTLTINPVEAEDTANYFCQQSKEVPYTFGGGTKVEIKR
